Results from the supplement of paper PMC9170038.

System: MS2 coat protein
Test: apparent KD of MS2 coat protein; designed switch direction (-1 OFF switch, 1 ON switch): -1; higher = weaker reporter binding
Summary of the method: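 Stalled E. coli RNA polymerase transcribed designed RNA switches on Illumina chips, which were then titrated with SNAP-549-labelled MS2 coat protein, doubling from 0.7 or 1.5 nM to 3 µM. Steps lasted from 0.8–1.5 h at the lowest concentration to 10–20 min at the highest. The apparent KD is each design's median over clusters of curve-fitted normalised fluorescence.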

[1] = input ligand: microRNA oligo, concentration not stated
[2] = Eterna round: R95, input ligand: microRNA oligo, concentration not stated

Sequence	apparent KD of MS2 coat protein (input ligand: FMN 200 uM) [µM]	apparent KD of MS2 coat protein [1] [µM]	apparent KD of MS2 coat protein (input ligand: none) [µM]	apparent KD of MS2 coat protein [2] [µM]
UGAUCAGACCGAGGAUAUAUAUGUAGGACCCACGUGAGUGGGUCCAGUACAUGAGGAUCACCCAUGUAGAAGGCGGUCUGAUCU [JL ENG2 1.87] (Eterna round: R96, puzzle: Exclusion NG 2)	0.0192	0.0107	0.015	–
UGAUCUAGCGGAGGAUAUACAUGAGGAUCACCCAUGUAGAUAAGUGUACCGUAGUGCACUAUUGUGUAGAAGGCCGCUAGAUCU [JL ENG2 3.64] (Eterna round: R96, puzzle: Exclusion NG 2)	0.0305	0.00935	0.0119	–
UGAUUGAUUAACAGAUUAUACAUGAGGAUCACCCAUGUAGGUCCUACGUGCCCUUUAUGCAGCUCGUCUUAUUCCCA [Sensor-V1 #70] (Eterna round: R97, puzzle: Sensor, turn-off variant 1)	0.0536	–	0.05	–
UGAUUGUUUACCAGGUUAUACAUGAGGAUCACCCAUGUAGAUCCUACGUGCGCGUUGUACCGCUCGUCUUAUUCCCA [Sensor-V1 #78] (Eterna round: R97, puzzle: Sensor, turn-off variant 1)	0.0183	–	0.0189	–
UGCAGACGAGGAUAUAAAUUUAAAUACAUGAGGAUCACCCAUGUAUAAAUGUAUUUAAAUUUAGAAGGCGUCUGCU [E5/12-A4] (Eterna round: R97, puzzle: Exclusion 5)	0.5	–	0.606	–
UGCAUGGUAGGAUAUACGGAGCAUUAGGGUUUGUUAUGUGGACAUGAGGAUCACCCAUGUAGAAGGGCCGUGCU [JL-ex2-2.16 mat747 mod] (puzzle: Exclusion 2)	–	–	–	0.0326
UGCAUGGUAGGAUAUACGGAGCAUUAGGGUUUGUUGUGUGGACAUGAGGAUCACCCAUGUAGAAGGGCCGUGCU [JL-ex2-2.17 mat747 mod] (puzzle: Exclusion 2)	–	–	–	0.0355
UGCAUGUCAGGAUAUAUUAGUACACUAGUCAGUCUAGGUGCGUAGAAGGGACAUGAGGAUCACCCAUGUGACAU [Eternabot (L2) Solution 1] (Eterna round: R97, puzzle: Exclusion 4)	0.143	–	0.0649	–
UGCCGAUGAGGAUAUACAUUGAAUAAGAUUCAUGUAAAACUACAUGAGGAUCACCCAUGUAGAAGGCAUUGGCU [Mat - Exclusion 2 - JL Mod - D69] (Eterna round: R97, puzzle: Exclusion 2)	0.0257	–	0.0156	–
UGCCGUUGAGGAUAUACAUAGAAAUAGAUUCAUGUAAAACUACAUGAGGAUCACCCAUGUAGAAGGCAAUGGCU [Mat - Exclusion 2 - JL Mod - D51] (Eterna round: R97, puzzle: Exclusion 2)	0.128	–	0.0239	–
UGCCUAGCAGGAUAUGCUCGGGAUUACAUGAGGAUCACCCAUGUGACUGAUUGUUGUCUUGCAGAAGGGCUAGGGA [JL-EX5-4.05 ViennaUCT mod] (Eterna round: R97, puzzle: Exclusion 5)	0.443	–	0.0997	–
UGCCUUUGAGGAUAUACGUAGAAAUAGAUUCAUGUAAAACUACAUGAGGAUCACCCAUGUAGAAGGCAAGGGCU [Mat - Exclusion 2 - JL Mod - D48] (Eterna round: R97, puzzle: Exclusion 2)	0.164	–	0.024	–
UGCGGUAGAGGAUAUACGUAGAAUUAGGUUCAUGUAAAACUACAUGAGGAUCACCCAUGUAGAAGGCUAUCGCU [JL-ex2-4.30 Eli mod] (Eterna round: R97, puzzle: Exclusion 2)	0.0854	–	0.0212	–
UGCUACAUGAGGAUCACCCAUGUUAUUUGGGAUUUUUUAGGACAGGAUAUGAUUGUAUUGUUUUUUCAGAAGGGUCAUUACUUU [JR_ExcNG3_Sub013] (Eterna round: R96, puzzle: Exclusion NG 3)	0.367	0.316	0.347	–
UGCUAGUCAGGAUAUACGAACAUGUCAAAAGACGUGAAGGGACAUGAGGAUCACCCAUGUAGAAGGGACUAGCC [salish99_ex2_r3_008] (puzzle: Exclusion 2)	–	–	–	0.0255
UGGUGGAAGCAGGAUAUGCUAGAAGUGUAGAAUGCAGAAGGGCUAACAUGAGGAUCACCCAUGUAAGAGGUGUU [JR_E6_Sub052] (puzzle: Exclusion 6)	–	–	–	0.296

Sequence	apparent KD of MS2 coat protein (input ligand: FMN 200 uM) [µM]	apparent KD of MS2 coat protein [1] [µM]	apparent KD of MS2 coat protein (input ligand: none) [µM]	apparent KD of MS2 coat protein [2] [µM]
UGGUGGUAGCAGGAUAUGCUUGUUGUGUAGUUUGCAGAAGGGCUAACAUGAGGAUCACCCAUGUAAGAGGUGUU [JR_E6_Sub054] (puzzle: Exclusion 6)	–	–	–	0.339
UGUAAGCUAGGAUAUGCUUUGGGAAAGCAUUCCUUCGAUAAACUUGAGGAUCACCCAAGUAGAAGGAGCUUACU [salish99_ex2_r4_006] (Eterna round: R97, puzzle: Exclusion 2)	0.0175	–	0.0115	–
UGUGUGAGACAGGAUAUGCCGGAUGAAAUGCAGGUAGAAGGGUCUACAUGAGGAUCACCCAUGUGGCCGGUUGG [Ex6 #75] (Eterna round: R97, puzzle: Exclusion 6)	0.0189	–	0.0151	–
UGUGUGAGACAGGAUAUGCUGGAUGAGAGGCAGGUAGAAGGGUCUACAUGAGGAUCACCCAUGUGGCCGGUUGG [Ex6 #72] (Eterna round: R97, puzzle: Exclusion 6)	0.0269	–	0.0263	–
UGUUGGUACGUAGGAUAUCCACCAACAGGUGGAAGGAUAUGGAAACAGAAGGUUCGCCAACAGGCGGAGAAGGACGUGGUAACU [pwkr exNG2 2xF7 2xFMN.24] (Eterna round: R96, puzzle: Exclusion NG 2)	0.126	0.212	0.255	–
UGUUGUCGCGCAGGAUAUGAGGAUCACCCAUAUAAGGAUAUCGAAAGAGAAGGUCUGAGGAUUACCCAGAAGGGCGGGACAACU [pwkr exNG2 2xF5 2xFMN.30] (Eterna round: R96, puzzle: Exclusion NG 2)	0.309	0.0438	0.0701	–
UGUUGUCGCGCAGGAUAUGAGGAUCACCCAUAUGGAGGAUAUGAAAAGAAGGUUCUGAGGAUCACCCAGAAGGGCGGGACAACU [pwkr exNG2 2xF5 2xFMN.20] (Eterna round: R96, puzzle: Exclusion NG 2)	0.261	0.043	0.0606	–
UGUUGUCGCGUAGGAUAUGCAUGAGGAUCACCCAUGCAAUUAGAGUUAACAUGAGGAUCACCCAUGUAGAAGGACGGGACAACU [pwkr exNG2 2xF5 1xFMN.6] (Eterna round: R96, puzzle: Exclusion NG 2)	0.0892	0.0346	0.0541	–
UGUUGUCGCGUAGGAUAUGCAUGAGGAUCACCCAUGCAAUUAGAGUUAACAUGAGGAUCACCCAUGUAGAAGGGCGGGACAACU [pwkr exNG2 2xF5 1xFMN.7] (Eterna round: R96, puzzle: Exclusion NG 2)	0.0628	0.0422	0.0512	–
UGUUGUUACGCAGGAUAUGAGGAUCACCCAUAUCAGGAUAUCGAAAGAGAAUUUCUGAGGAUCACCCAGAAGGGCGGGUUAACA [pwkr exNG2 2xF5 2xFMN.37] (Eterna round: R96, puzzle: Exclusion NG 2)	0.125	0.0403	0.0477	–
UGUUGUUCAGGAUAUGAUGUAUAAUACAUGAGGAUCACCCAUGUAGAUCCUGAAUUAACAUCAGAAGGGAAUAUUU [JL-ex5-4.59 Brourd mod] (Eterna round: R97, puzzle: Exclusion 5)	0.0198	–	0.0172	–
UGUUGUUCCGAAGGAUAUGUAUGAGGAUCACCCAUAAGAGUUGAUGUACCAUGAGGAUCACCCAUGUAGAAGGUCGGGUUAACU [pwkr exNG2 2xF5 1xFMN.20] (Eterna round: R96, puzzle: Exclusion NG 2)	0.2	0.0526	0.101	–
UGUUGUUGCGUAGGAUAUUGCCAACAGGCAGUAGGAUAUGCGAAAGCAGAAGGACCGCCAACAGGCGAGAAGGACGGGACAACU [pwkr exNG2 2xF7 2xFMN.13] (Eterna round: R96, puzzle: Exclusion NG 2)	0.177	0.0394	0.0726	–
UUAAAUCAUGUAGGAUAUGCGUGGCGAAGCUAUGCAGAAGGACAUGAGGAUCACCCAUGUCUUUCCGUCUGCGUACAGAUGGAG [JL Eng1 1.08 mod 4] (Eterna round: R96, puzzle: Exclusion NG 1)	0.191	0.0174	0.0247	–
UUAACCAGAGGAUAUGCGAAUAAAUAAAACUUUUUUUUUUAACAUGAGGAUCACCCAUGUAGAAGGCUGCAUUU [Ex2 #30] (Eterna round: R97, puzzle: Exclusion 2)	0.0254	–	0.0251	–
